We go through three substances from publication PMC3858276.

Assay [1] deals with phosphorylated SNAP-ADAP fusion protein (ADAP amino acids 570-690) (human) (UniProt O15117). The experiment in a line: MST; SH2 proteins (only partly purified) serially diluted in 1x PBS with 1.75% (v/v) E. coli extract; fluorescent ADAP at 12 nM; 5 min at RT; Monolith NT.115.
The target in assay [2] is site-specifically biotinylated Fyn SH2 domain (UniProt P06241). The experiment in a line: supernatant depletion assay (pull-down titration); biotinylated SH2 domains on streptavidin-coated DynaBeads, washed once and serially diluted in 1x PBS; ADAP at 8 nM (PBS with 0.1% E. coli extract), 10 min at RT; unbound ADAP in the supernatant read by in-gel fluorescence; Kd estimated from the plot.
Sequence of site-specifically biotinylated Fyn SH2 domain (P06241 149-246): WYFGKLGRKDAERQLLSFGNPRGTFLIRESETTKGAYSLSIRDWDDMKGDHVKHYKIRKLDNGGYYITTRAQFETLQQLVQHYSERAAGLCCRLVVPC

Sequence of phosphorylated SNAP-ADAP fusion protein (ADAP amino acids 570-690) (human) (O15117 570-690): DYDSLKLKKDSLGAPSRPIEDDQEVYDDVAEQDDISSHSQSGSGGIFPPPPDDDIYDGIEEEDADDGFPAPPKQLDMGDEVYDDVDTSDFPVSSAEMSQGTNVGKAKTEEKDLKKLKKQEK

The Kd is the constant that tells how readily two partners part at equilibrium. As for “Src SH2 domain without biotin (for MST) (from UniProt P12931 151-248) (domain or fragment)”, the Kd in assay [1] amounted to 1000 nM.

In turn, “Fyn SH2 domain without biotin (for MST) (from UniProt P06241 149-246) (domain or fragment)” gave a Kd in assay [1] of 1000 nM. Turning to “phosphorylated SNAP-ADAP fusion protein (ADAP amino acids 570-690) (from UniProt O15117 570-690) (domain or fragment)”, the Kd in assay [2] was 300 nM.
